The values below come from article PMC10786891, “Massively parallel profiling of RNA-targeting CRISPR-Cas13d”.

The Kd is the concentration at which binding is half-saturated. A lower Kd goes with higher affinity.

B1: target 3 insG 3' of 7,insA 3' of 6 (mixed)
RNA 1: CACCCGUGCAAAAUUGCAGGGGUCUAAAACGACCUGAAUAUUUCAGAUCAAA
RNA 2: GGGAAUGGAUCCACAUCUACGAAUUCGUUUUUGAUCUGAAAUAUUGCAAGGUCUGCAGAUCGGAAGAGCACACGU
B2: target 3 C6U,A9G (mixed)
RNA 1: B1 RNA 1
RNA 2: GGGAAUGGAUCCACAUCUACGAAUUCGUUUUUGAUCUGAAAUGUUUAGGUCUGCAGAUCGGAAGAGCACACGU
B3: target 3 insA 3' of 22,insG 3' of 6 (mixed)
RNA 1: B1 RNA 1
RNA 2: GGGAAUGGAUCCACAUCUACGAAUUCGUUUAUUGAUCUGAAAUAUUCGAGGUCUGCAGAUCGGAAGAGCACACGU
B4: target 3 complement block 4-7 (mixed)
RNA 1: B1 RNA 1
RNA 2: B2 RNA 2 with G43A, U45A, U46G, A47U, G48C
B5: target 3 A5G,A13G (mixed)
RNA 1: B1 RNA 1
RNA 2: B2 RNA 2 with A39G, G43A, U46C, A47G
B6: target 3 insA 3' of 22,insC 3' of 19 (mixed)
RNA 1: B1 RNA 1
RNA 2: GGGAAUGGAUCCACAUCUACGAAUUCGUUUAUUGCAUCUGAAAUAUUCAGGUCUGCAGAUCGGAAGAGCACACGU
B7: target 3 insU 3' of 19,insU 3' of 3 (mixed)
RNA 1: B1 RNA 1
RNA 2: B3 RNA 2 with A31U, U33G, G34U, G48A, A49G, G51U
B8: target 3 C1U,U2G (mixed)
RNA 1: B1 RNA 1
RNA 2: B2 RNA 2 with G43A, U46C, U50G, C51U
B9: target 3 insA 3' of 8,insU 3' of 4 (mixed)
RNA 1: B1 RNA 1
RNA 2: B1 RNA 2 with U45A, G46U, A49G, G50U
B10: target 3 G4A,A18G (mixed)
RNA 1: B1 RNA 1
RNA 2: B2 RNA 2 with A34G, G43A, U46C, G48A
B11: target 3 A5C (mixed)
RNA 1: B1 RNA 1
RNA 2: B2 RNA 2 with G43A, U46C, A47C
B12: target 3 A12C (mixed)
RNA 1: B1 RNA 1
RNA 2: B2 RNA 2 with A40C, G43A, U46C
B13: target 3 A12G,U22A (mixed)
RNA 1: B1 RNA 1
RNA 2: B2 RNA 2 with U30A, A40G, G43A, U46C
B14: target 3 insC 3' of 4,insU 3' of 3 (mixed)
RNA 1: B1 RNA 1
RNA 2: B1 RNA 2 with G46C, C47A, A48G, A49C, G51U
B15: target 3 U7G,U22A (mixed)
RNA 1: B1 RNA 1
RNA 2: B2 RNA 2 with U30A, G43A, U45G, U46C
B16: target 3 insA 3' of 7,insU 3' of 3 (mixed)
RNA 1: B1 RNA 1
RNA 2: B1 RNA 2 with G46A, A49G, G51U
B17: target 3 C1G,A5C (mixed)
RNA 1: B1 RNA 1
RNA 2: B2 RNA 2 with G43A, U46C, A47C, C51G
B18: target 3 A11C (mixed)
RNA 1: B1 RNA 1
RNA 2: B2 RNA 2 with A41C, G43A, U46C
B19: target 3 insC 3' of 4,insA 3' of 3 (mixed)
RNA 1: B1 RNA 1
RNA 2: B1 RNA 2 with G46C, C47A, A48G, A49C, G51A
B20: target 3 U8A,A18G (mixed)
RNA 1: B1 RNA 1
RNA 2: B2 RNA 2 with A34G, G43A, U44A, U46C
B21: target 3 C6A,U7G (mixed)
RNA 1: B1 RNA 1
RNA 2: B2 RNA 2 with G43A, U45G, U46A
B22: target 3 U7G,A18G (mixed)
RNA 1: B1 RNA 1
RNA 2: B2 RNA 2 with A34G, G43A, U45G, U46C
B23: target 3 C6U,A11U (mixed)
RNA 1: B1 RNA 1
RNA 2: B2 RNA 2 with A41U, G43A
B24: target 3 U2G,A5G (mixed)
RNA 1: B1 RNA 1
RNA 2: B2 RNA 2 with G43A, U46C, A47G, U50G
B25: target 3 G3C,U8A (mixed)
RNA 1: B1 RNA 1
RNA 2: B2 RNA 2 with G43A, U44A, U46C, G49C
B26: target 1 insA 3' of 5,insU 3' of 1 (mixed)
RNA 1: CACCCGUGCAAAAAUGCAGGGGUCUAAAACUGAGCGGAUAACCUCUCUAUGG
RNA 2: GGGAAUGGAUCCACAUCUACGAAUUCGUACCAUAGAGAGGUUAUCCGACUCAUCCGAGAUCGGAAGAGCACACGU
B27: target 1 A18C,U19G (mixed)
RNA 1: B26 RNA 1
RNA 2: GGGAAUGGAUCCACAUCUACGAAUUCGUACCAGCGAGAGGUUAUCCGCUCACCGAGAUCGGAAGAGCACACGU
B28: target 1 insC 3' of 18,insG 3' of 1 (mixed)
RNA 1: B26 RNA 1
RNA 2: GGGAAUGGAUCCACAUCUACGAAUUCGUACCAUACGAGAGGUUAUCCGCUCAGCCGAGAUCGGAAGAGCACACGU

Residue numbers refer to the chain shown, from its start. Numbers in names are those of the source.

The data set deals with T1, EsCas13d, nuclease-dead (Eubacterium siraeum, UniProt B0MS50, R295A;H300A;R849A;H854A).
T1 sequence: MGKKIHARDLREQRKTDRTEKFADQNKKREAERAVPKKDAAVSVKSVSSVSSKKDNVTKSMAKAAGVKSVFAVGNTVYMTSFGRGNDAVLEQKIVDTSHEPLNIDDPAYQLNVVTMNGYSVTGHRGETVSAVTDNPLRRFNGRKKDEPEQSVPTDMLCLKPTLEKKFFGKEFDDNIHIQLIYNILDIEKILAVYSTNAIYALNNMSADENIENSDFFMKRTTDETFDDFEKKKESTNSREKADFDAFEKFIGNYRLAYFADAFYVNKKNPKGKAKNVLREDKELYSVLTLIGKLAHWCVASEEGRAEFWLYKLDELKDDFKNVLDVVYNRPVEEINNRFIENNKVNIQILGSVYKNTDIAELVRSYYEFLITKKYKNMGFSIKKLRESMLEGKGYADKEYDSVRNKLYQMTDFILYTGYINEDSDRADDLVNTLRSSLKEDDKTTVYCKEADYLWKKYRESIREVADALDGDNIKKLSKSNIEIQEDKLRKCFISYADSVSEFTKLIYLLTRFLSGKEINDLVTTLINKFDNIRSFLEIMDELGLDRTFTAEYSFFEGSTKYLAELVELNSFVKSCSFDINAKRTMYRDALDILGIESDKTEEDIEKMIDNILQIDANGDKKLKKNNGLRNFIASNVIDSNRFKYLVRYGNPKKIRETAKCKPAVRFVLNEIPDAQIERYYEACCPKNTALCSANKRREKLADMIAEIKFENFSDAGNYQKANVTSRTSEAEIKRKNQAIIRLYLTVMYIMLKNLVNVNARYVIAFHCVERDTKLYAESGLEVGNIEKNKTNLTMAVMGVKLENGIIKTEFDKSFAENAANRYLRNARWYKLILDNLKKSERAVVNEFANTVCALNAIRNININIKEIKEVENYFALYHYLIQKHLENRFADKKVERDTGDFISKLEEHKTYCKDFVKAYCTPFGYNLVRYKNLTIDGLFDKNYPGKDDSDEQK
In words: crRNA (strand 1, pre-loaded); Mg2+; 40 mM Tris-HCl pH 7.5, 150 mM NaCl, 6 mM MgCl2, 1 mM DTT, 0.1% Tween-20, 0.2 mg/ml BSA; 25 C; 10 min per concentration, then washed. The settings on record: tags: His6-TwinStrep-SUMO cleaved; N-terminal SNAP kept (SNAP-Surface 488); label: 3' end held by stalled T7 RNA polymerase.
Molecule B1 yielded a Kd of 0.0293 ± 0.00375 µM.

B2 yielded a Kd of 0.0221 ± 0.0019 µM. This Kd and that of the molecule before are within 1.5-fold of each other.

Molecule B3 gave a Kd of 0.0122 ± 0.0013 µM.

B4 registered a dissociation constant (Kd) of 0.0236 ± 0.00175 µM.

For the molecule B5, the dissociation constant (Kd) is roughly 0.1 µM.

With B6, binding was put at a Kd of 0.091 ± 0.0255 µM.

Regarding B7, the Kd stood at 0.105 ± 0.045 µM.

Regarding B8, the Kd is 0.091 ± 0.02 µM.

B9 showed a Kd of 0.0218 ± 0.0036 µM.

As for B10, binding was put at a Kd of 0.0137 ± 0.00115 µM.

Molecule B11 registered a Kd of 0.0645 ± 0.011 µM. This Kd lies about 4.7-fold higher than the previous one.

As to B12, the Kd worked out at 0.053 ± 0.0085 µM.

Molecule B13 came in with a Kd of 0.0405 ± 0.0055 µM.

Regarding B14, the equilibrium dissociation constant (Kd) was 0.0291 ± 0.0036 µM. The Kd values of the last two molecules are within 1.5-fold of each other.

Consider B15, for which the Kd worked out at 0.041 ± 0.0055 µM.

B16 yielded a Kd of 0.076 ± 0.032 µM.

The molecule B17 displayed a dissociation constant Kd of 0.0835 ± 0.023 µM.

Regarding B18, binding was characterised by a dissociation constant (Kd) of 0.0815 ± 0.034 µM.

Regarding B19, binding was characterised by a dissociation constant (Kd) of 0.034 ± 0.00405 µM.

In turn, B20 registered a Kd of 0.063 ± 0.0095 µM.

On to B21, for which the Kd was 0.058 ± 0.0065 µM.

Turning to B22, the equilibrium dissociation constant (Kd) amounted to 0.064 ± 0.0225 µM.

B23: the Kd is 0.092 ± 0.024 µM.

In turn, B24 gave a dissociation constant Kd of 0.00254 ± 0.00036 µM.

Regarding B25, the Kd was 0.0635 ± 0.0075 µM.

For the molecule B26, the Kd worked out at 0.0095 ± 0.001 µM.

The molecule B27 returned an equilibrium dissociation constant (Kd) of 0.055 ± 0.014 µM.

Take B28: binding was characterised by a dissociation constant (Kd) of 0.034 ± 0.004 µM.
